In doi:10.1101/2021.08.18.456755:

Legend:
[1] = target: (His)6-tagged Pf-Ubc9 (Plasmodium falciparum); assay: pull-down
[2] = target: Hs-Ubc9 (human E2 conjugating enzyme Ubc9), untagged (human) (UniProt P63279); assay: ITC
[3] = target: Pf-Ubc9 (Plasmodium falciparum E2 conjugating enzyme), untagged (Plasmodium falciparum); assay: ITC
[4] = target: (His)6-tagged Hs-Ubc9 (human) (UniProt P63279); assay: pull-down
[5] = target: Hs-Ubc9 (human E2 conjugating enzyme Ubc9), untagged (human) (UniProt P63279)
[6] = target: Pf-SUMO D90A mutant, untagged (ITC, SPR, NMR) (Plasmodium falciparum); assay: SPR

For “Hs-SUMO1 as prepared for pull-down and SUMOylation assays (GST-tagged preparation) (from UniProt P63165 1-97) (natural protein)”, which relative binding affinity (quantified pull-down) [1] is on record?
The relative binding affinity (quantified pull-down) was 12%.

“Pf-SUMO (Plasmodium falciparum SUMO, mature form Pf-SUMO-GG), untagged (natural protein)” was tested. Which Kd [2] did it give?
The Kd was 27.4 µM.

What about the Kd [3] of the same substance?
The Kd was 4.05 µM.

For “Pf-SUMO D68A mutant (pull-down preparation) (natural protein)”, which reduction of binding against Pf-SUMO wild type (quantified pull-down) [4] is on record?
Its reduction of binding against Pf-SUMO wild type (quantified pull-down) is 90%.

Which reduction of binding against Pf-SUMO wild type (quantified pull-down) [4] does the source give for “Pf-SUMO D68K mutant (pull-down preparation) (natural protein)” here?
The reduction of binding against Pf-SUMO wild type (quantified pull-down) was 90%.

How did the reduction of binding against Pf-SUMO wild type (quantified pull-down) [4] turn out when “Pf-SUMO D90A mutant (pull-down preparation) (natural protein)” was run?
The reduction of binding against Pf-SUMO wild type (quantified pull-down) was 90%.

How did the Kd [3] turn out when “Pf-SUMO D90A mutant, untagged (ITC, SPR, NMR) (natural protein)” was run?
Its Kd is 2.5 µM.

And the fold change of the dissociation constant against the wild type [5]?
The fold change of the dissociation constant against the wild type was 4 fold.

With “Pf-SUMO D90K mutant (pull-down preparation) (natural protein)” as the substance, how does the reduction of binding against Pf-SUMO wild type (quantified pull-down) [4] read?
Its reduction of binding against Pf-SUMO wild type (quantified pull-down) is 90%.

How did the relative affinity (quantified pull-down) [4] turn out when “Pf-SUMO wild type as prepared for pull-down and SUMOylation assays (GST-tagged preparation) (natural protein)” was run?
Its relative affinity (quantified pull-down) is 67%.

“Pf-Ubc9 (Plasmodium falciparum E2 conjugating enzyme), untagged” was tested. Which Kd [6] did it give?
Its Kd is 3.02 µM.
